The results in this text go back to PMC11323494, “A network of acetyl phosphate-dependent modification modulates c-di-AMP homeostasis in Actinobacteria” (mBio, 2024).

pKd: −log10 of the molar value.

Data set [1] concerns the target T1, DisA (Saccharopolyspora erythraea, UniProt A4F6V9).
T1 construct: recombinant His-tagged, pET28a(+), E. coli BL21(DE3); octamer
T1 sequence (A4F6V9 1-370): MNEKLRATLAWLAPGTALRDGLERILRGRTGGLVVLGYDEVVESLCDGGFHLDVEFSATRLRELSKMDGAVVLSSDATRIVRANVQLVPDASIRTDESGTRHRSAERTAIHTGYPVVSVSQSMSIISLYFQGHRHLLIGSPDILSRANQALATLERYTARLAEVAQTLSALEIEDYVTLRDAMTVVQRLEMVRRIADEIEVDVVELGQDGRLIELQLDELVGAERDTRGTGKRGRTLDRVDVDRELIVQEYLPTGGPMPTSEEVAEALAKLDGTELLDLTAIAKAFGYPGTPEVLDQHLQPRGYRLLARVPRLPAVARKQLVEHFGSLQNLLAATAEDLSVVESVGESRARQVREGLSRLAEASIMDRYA
Briefly: HPLC of c-di-AMP formed (DAC assay). Type of data set: biochemical. The following applies: 100 mM ATP, 10 mM MgCl2, 0.1 M NaCl, 40 mM Tris pH 7.5, 10 uM enzyme.

For data set [2], the target named is T1, DisA. In words: DAC activity by HPLC after […] h preincubation; acetylation by anti-AcK blot and LC-MS/MS. The format is biochemical. The following applies: covalent; lysine acetylation (K66, K284); 10 mM AcP, 5 h, 37 C, 50 mM HEPES pH 7.5; substrate ATP.
The target in another data set is T2, DasR (Saccharopolyspora erythraea, UniProt A4F723).
T2 construct: gene SACE_0500; recombinant His-tagged, pET28a(+), E. coli BL21(DE3); dimer
T2 sequence (A4F723 1-251): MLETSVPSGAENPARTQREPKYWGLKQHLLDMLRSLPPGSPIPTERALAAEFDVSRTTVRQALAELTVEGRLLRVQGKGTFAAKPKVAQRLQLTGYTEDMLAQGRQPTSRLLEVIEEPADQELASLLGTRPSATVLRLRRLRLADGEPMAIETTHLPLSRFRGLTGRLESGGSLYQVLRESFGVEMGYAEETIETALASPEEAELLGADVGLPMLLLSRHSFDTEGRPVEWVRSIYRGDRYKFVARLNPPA
In words: in vitro acetylation, anti-AcK Western blot. The format is binding. The following applies: covalent; lysine acetylation; 10 mM AcP, 0-5 h, 37 C, 50 mM HEPES pH 7.5.

Data set [3] deals with DNA integrity scanning protein (DisA), nonacetylated (Saccharopolyspora erythraea) (UniProt A4F6V9). Briefly: cross-linking; purified protein in 20 mM bicine pH 8.0, 150 mM NaCl, 10 mM MgCl2, 0.2% n-octyl-beta-D-glucopyranoside, 8% glycerol; 1 mM disuccinimidyl suberate, room temperature, 1 h; 15% SDS-PAGE, Coomassie blue; bands quantified by densitometry; self-association (DisA monomer and octamer, DasR monomer and dimer).

Data set [4] deals with DasR, nonacetylated (GntR-family global regulator) (Saccharopolyspora erythraea). The data set is described as above.
The target of another data set is DasR K78Q variant. In words: cross-linking, gel band densitometry (ImageJ). The following applies: parent: 100.
A further data set addresses DasR^K78R. Briefly: cross-linking, gel band densitometry (ImageJ). Conditions: parent: 100.
For data set [5], the system named is DasR WT (Saccharopolyspora erythraea NRRL2338). In words: BLI. Conditions: BLI: 10 mM HEPES pH 8.0, 2 mM MgCl2, 0.1 mM EDTA, 200 mM KCl (running buffer + 10 µg/mL BSA, 0.02% Tween-20), SA sensor, temperature not stated; EMSA: 5 nM ….

Regarding `Nc1ncnc2c1ncn2[C@@H]1O[C@H](COP(=O)(O)OP(=O)(O)OP(=O)(O)O)[C@@H](O)[C@H]1O` [ATP], the “HPLC of c-di-AMP formed (DAC assay)” value on DisA [1] is listed as “started by the addition of 100-mM ATP”.

For `CC(=O)OP(=O)(O)O` [acetyl phosphate], the “DAC activity reduction (%)” value on DisA [2] is on record as ~ 75%. Also, on DasR, the “in vitro acetylation, anti-AcK Western blot” value was “In vitro acetylation further confirmed that DasR was acetylated by AcP”. One may read the stoichiometry N as the number of molecules, sites or subunits per partner or assembly. “DNA integrity scanning protein (DisA), nonacetylated (from UniProt A4F6V9 1-370) (enzyme)” returned a stoichiometry N in data set [3] of 8. Consider “DasR, nonacetylated (GntR-family global regulator) (natural protein)”, for which, in data set [4], the stoichiometry N stood at 2.

“DasR, nonacetylated (GntR-family global regulator) K78Q”: in the data set with DasR K78Q variant, the other: relative monomer level (relative monomer level (WT = 100)) worked out at 230 and the percent of parent (relative dimer level (WT = 100)) amounted to 42. Turning to “DasR, nonacetylated (GntR-family global regulator) K78R”, in the data set with DasR^K78R, the other: relative monomer level (relative monomer level (WT = 100)) was determined as 140 and the percent of parent (relative dimer level (WT = 100)) came to 89. As usually defined, the pKd is the Kd on a negative log10 scale, so that one unit is a factor of ten. Turning to disA promoter probe, in data set [5], the negative-log Kd (pKd) is 6.40.
